Experimental data reported in patent US20260274955A1 (JANUX THERAPEUTICS, published 2026).

Experiments:
[1] = biological target: T1, Anti-CD28 Fab (SEQ ID NOs: 202, 203); assay: phage ELISA, Fab on plate;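 also: crude clonal phage supernatants added to wells pretreated with blocking buffer with or without CD28 antigen, then bound phage read out via HRP-linked anti-M13 antibody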
T1 construct: biotinylated and captured on neutravidin coated plates in the phage ELISA
Description: After panning, phage infected bacteria were plated out and colonies picked into 96 well blocks. Clonal phage was then amplified and separated from bacterial cells via centrifugation.
Clonal phage were harvested as crude supernatants and screened via standard ELISAs. […] Prior to the addition of clonal phage, wells were incubated with blocking buffer and CD28 antigen or blocking buffer alone. Without washing or aspirating, clonal phage supernatants were then added to the wells and incubated for a short time. Wells were then washed followed by detection of bound phage using a horse radish conjugated anti-M13 antibody. Clonal phage of interest were then sent for sequence analysis.

[2] = biological target: T2, anti-CD28 Fab (SEQ ID NOs: 202, 203); assay: phage binding ELISA; biotinylated Fab on neutravidin plate;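 also: clonal phage supernatants added to Fab wells pretreated with CD28 antigen or with blocking buffer only, bound phage read out via HRP-linked anti-M13 antibody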
T2 construct: biotinylated and captured on neutravidin coated plates in the phage ELISA
T2 sequence (VH, as listed by the source, chain 1 of 2): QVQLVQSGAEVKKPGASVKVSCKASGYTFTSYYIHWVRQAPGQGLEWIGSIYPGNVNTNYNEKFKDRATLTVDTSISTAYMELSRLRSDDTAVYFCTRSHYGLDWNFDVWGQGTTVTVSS
T2 sequence (VL, as listed by the source, chain 2 of 2): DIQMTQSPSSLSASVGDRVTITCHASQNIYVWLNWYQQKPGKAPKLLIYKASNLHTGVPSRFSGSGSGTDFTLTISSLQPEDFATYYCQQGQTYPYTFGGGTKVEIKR
Description: (§1) Clonal phage were harvested as crude supernatants and screened via standard ELISAs. […] Prior to the addition of clonal phage, wells were incubated with blocking buffer and CD28 antigen or blocking buffer alone. Without washing or aspirating, clonal phage supernatants were then added to the wells and incubated for a short time. Wells were then washed followed by detection of bound phage using a horse radish conjugated anti-M13 antibody.

[3] = biological target: T3, anti-CD28 Fab (SEQ ID NOs: 202, 203); assay: phage ELISA on captured Fab;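 also: ELISA with clonal phage supernatants added to wells preincubated with CD28 antigen or with blocking buffer only, bound phage detected by HRP-conjugated anti-M13 antibody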
T3 construct: biotinylated and captured on neutravidin coated plates in the phage ELISA
T3 sequence (VH, as listed by the source, chain 1 of 2): as the sequence (VH, as listed by the source, chain 1 of 2) above
T3 sequence (VL, as listed by the source, chain 2 of 2): as the sequence (VL, as listed by the source, chain 2 of 2) above
Description: as §1

T1 sequence (VH, as listed by the source, chain 1 of 2): as the sequence (VH, as listed by the source, chain 1 of 2) above
T1 sequence (VL, as listed by the source, chain 2 of 2): as the sequence (VL, as listed by the source, chain 2 of 2) above

YCDGHEAEYMWKCL [Phage-727]
Anti-CD28 Fab (SEQ ID NOs: 202, 203) signal [1]: 1.13

YCEGHSVQYMQKCL [Phage-429]
Anti-CD28 Fab (SEQ ID NOs: 202, 203) signal [2]: 1.71

YCDGHLPEYFLKCL [Phage-436]
Anti-CD28 Fab (SEQ ID NOs: 202, 203) signal [2]: 1.71

YCDGHVVEYMSKCL [Phage-729]
Anti-CD28 Fab (SEQ ID NOs: 202, 203) signal [1]: 1.12

YCEGHAPQYLNKCL [Phage-358]
Anti-CD28 Fab (SEQ ID NOs: 202, 203) signal [2]: 1.82

YCQGHLPVYMEKCL [Phage-427]
Anti-CD28 Fab (SEQ ID NOs: 202, 203) signal [2]: 1.72

YCQGHLPQYIEKCL [Phage-721]
Anti-CD28 Fab (SEQ ID NOs: 202, 203) signal [1]: 1.14

YCDGHLQMYMMKCL [Phage-724]
Anti-CD28 Fab (SEQ ID NOs: 202, 203) signal [1]: 1.14

YCAGHTQEYMYKCL [Phage-438]
Anti-CD28 Fab (SEQ ID NOs: 202, 203) signal [2]: 1.7

YCEGHVAEYRAKCL [Phage-720]
Anti-CD28 Fab (SEQ ID NOs: 202, 203) signal [1]: 1.15

YCDGHLQIYLWKCL [Phage-426]
Anti-CD28 Fab (SEQ ID NOs: 202, 203) signal [2]: 1.72

YCDGHEQQYMEKCL [Phage-723]
Anti-CD28 Fab (SEQ ID NOs: 202, 203) signal [1]: 1.14

YCDGHAAEYMDKCL [Phage-428]
Anti-CD28 Fab (SEQ ID NOs: 202, 203) signal [2]: 1.72

YCDGHAAEFMMKCL [Phage-423]
Anti-CD28 Fab (SEQ ID NOs: 202, 203) signal [2]: 1.72

YCDGHAQEYMVKCL (on phage, pIII fusion) [Phage-510]
Anti-CD28 Fab (SEQ ID NOs: 202, 203) signal [3]: 1.61

YCDGHKPQYMEKCL [Phage-394]
Anti-CD28 Fab (SEQ ID NOs: 202, 203) signal [2]: 1.76

YCDGHAPVYMAKCL [Phage-400]
Anti-CD28 Fab (SEQ ID NOs: 202, 203) signal [2]: 1.75

YCAGHSQEHIQKCL [Phage-415]
Anti-CD28 Fab (SEQ ID NOs: 202, 203) signal [2]: 1.73

YCEGHSEEYMSKCL [Phage-304]
Anti-CD28 Fab (SEQ ID NOs: 202, 203) signal [2]: 1.91

YCEGHSAEFMTKCL [Phage-363]
Anti-CD28 Fab (SEQ ID NOs: 202, 203) signal [2]: 1.81

YCEGHAEQYMKKCL [Phage-728]
Anti-CD28 Fab (SEQ ID NOs: 202, 203) signal [1]: 1.12

YCDGHAEKYMQKCL [Phage-408]
Anti-CD28 Fab (SEQ ID NOs: 202, 203) signal [2]: 1.74

YCEGHLQTYMAKCL [Phage-414]
Anti-CD28 Fab (SEQ ID NOs: 202, 203) signal [2]: 1.73

YCDGHLDIYLAKCL [Phage-303]
Anti-CD28 Fab (SEQ ID NOs: 202, 203) signal [2]: 1.91

YCAGHSPEYMQKCL (on phage, pIII fusion) [Phage-511]
Anti-CD28 Fab (SEQ ID NOs: 202, 203) signal [3]: 1.6

YCDGHLEEYMVKCM [Phage-413]
Anti-CD28 Fab (SEQ ID NOs: 202, 203) signal [2]: 1.73

YCEGHLYEYMWKCL [Phage-725]
Anti-CD28 Fab (SEQ ID NOs: 202, 203) signal [1]: 1.13

YCDGHIGEYMVKCL [Phage-395]
Anti-CD28 Fab (SEQ ID NOs: 202, 203) signal [2]: 1.76

YCDGHAREYMTKCL [Phage-359]
Anti-CD28 Fab (SEQ ID NOs: 202, 203) signal [2]: 1.82

YCDGHAIQYIGKCL [Phage-422]
Anti-CD28 Fab (SEQ ID NOs: 202, 203) signal [2]: 1.72

YCDGHLQIYMHKCL [Phage-434]
Anti-CD28 Fab (SEQ ID NOs: 202, 203) signal [2]: 1.71

YCEGHLAVYMQKCL [Phage-301]
Anti-CD28 Fab (SEQ ID NOs: 202, 203) signal [2]: 1.91

YCDGHVQEYMQKCL [Phage-397]
Anti-CD28 Fab (SEQ ID NOs: 202, 203) signal [2]: 1.76

YCDGHSVKYMAKCL (on phage, pIII fusion) [Phage-507]
Anti-CD28 Fab (SEQ ID NOs: 202, 203) signal [3]: 1.61

YCSGHLPEYMWKCL (on phage, pIII fusion) [Phage-508]
Anti-CD28 Fab (SEQ ID NOs: 202, 203) signal [3]: 1.61

YCEGHLPQYFMKCL [Phage-440]
Anti-CD28 Fab (SEQ ID NOs: 202, 203) signal [2]: 1.7

YCHGHLQEYMAKCL [Phage-398]
Anti-CD28 Fab (SEQ ID NOs: 202, 203) signal [2]: 1.76

YCDGHSLQYMDKCL [Phage-405]
Anti-CD28 Fab (SEQ ID NOs: 202, 203) signal [2]: 1.75

YCDGHSAEYMEKCI [Phage-356]
Anti-CD28 Fab (SEQ ID NOs: 202, 203) signal [2]: 1.83

YCVGHSEQYMAKCL [Phage-726]
Anti-CD28 Fab (SEQ ID NOs: 202, 203) signal [1]: 1.13

YCDGHVEPYLSKCL [Phage-393]
Anti-CD28 Fab (SEQ ID NOs: 202, 203) signal [2]: 1.76

YCDGHLLEYMSKCL (on phage, pIII fusion) [Phage-582]
Anti-CD28 Fab (SEQ ID NOs: 202, 203) signal [3]: 1.46

YCDGHLVEYRGKCL [Phage-432]
Anti-CD28 Fab (SEQ ID NOs: 202, 203) signal [2]: 1.71

YCDGHSWEYMEKCL [Phage-441]
Anti-CD28 Fab (SEQ ID NOs: 202, 203) signal [2]: 1.7

YCDGHSGVYMWKCL [Phage-420]
Anti-CD28 Fab (SEQ ID NOs: 202, 203) signal [2]: 1.73

YCDGHTEEYMDKCL [Phage-360]
Anti-CD28 Fab (SEQ ID NOs: 202, 203) signal [2]: 1.82

YCDGHTQAYIQKCL [Phage-421]
Anti-CD28 Fab (SEQ ID NOs: 202, 203) signal [2]: 1.73

YCDGHSLAYIAKCL [Phage-437]
Anti-CD28 Fab (SEQ ID NOs: 202, 203) signal [2]: 1.7

YCDGHSREYMVKCL [Phage-431]
Anti-CD28 Fab (SEQ ID NOs: 202, 203) signal [2]: 1.71

YCEGHAIEYLAKCL [Phage-409]
Anti-CD28 Fab (SEQ ID NOs: 202, 203) signal [2]: 1.74

YCEGHAAAYMGKCL [Phage-722]
Anti-CD28 Fab (SEQ ID NOs: 202, 203) signal [1]: 1.14

YCDGHSEVYMSKCL (on phage, pIII fusion) [Phage-540]
Anti-CD28 Fab (SEQ ID NOs: 202, 203) signal [3]: 1.55

YCEGHSEMYMKKCL [Phage-425]
Anti-CD28 Fab (SEQ ID NOs: 202, 203) signal [2]: 1.72

YCDGHAEEYLWKCL [Phage-418]
Anti-CD28 Fab (SEQ ID NOs: 202, 203) signal [2]: 1.73

YCDGHIWPWIEKCL [Phage-731]
Anti-CD28 Fab (SEQ ID NOs: 202, 203) signal [1]: 1.11

YCDGHHIEYLAKCL [Phage-402]
Anti-CD28 Fab (SEQ ID NOs: 202, 203) signal [2]: 1.75

YCDGHLPEYIFKCL [Phage-416]
Anti-CD28 Fab (SEQ ID NOs: 202, 203) signal [2]: 1.73

YCDGHSSMYMAKCL [Phage-361]
Anti-CD28 Fab (SEQ ID NOs: 202, 203) signal [2]: 1.82

YCDGHSPQYMQKCL [Phage-390]
Anti-CD28 Fab (SEQ ID NOs: 202, 203) signal [2]: 1.76

YCEGHSSEYMEKCL [Phage-302]
Anti-CD28 Fab (SEQ ID NOs: 202, 203) signal [2]: 1.91

YCDGHLPLYMHKCL [Phage-357]
Anti-CD28 Fab (SEQ ID NOs: 202, 203) signal [2]: 1.82

YCAGHLPQYMHKCL [Phage-730]
Anti-CD28 Fab (SEQ ID NOs: 202, 203) signal [1]: 1.11

YCDGHYPEYMSKCL [Phage-406]
Anti-CD28 Fab (SEQ ID NOs: 202, 203) signal [2]: 1.75

YCEGHLAQYMWKCL [Phage-300]
Anti-CD28 Fab (SEQ ID NOs: 202, 203) signal [2]: 1.91

YCEGHLAQYMNKCL [Phage-396]
Anti-CD28 Fab (SEQ ID NOs: 202, 203) signal [2]: 1.76

YCEGHSSLYLEKCL [Phage-732]
Anti-CD28 Fab (SEQ ID NOs: 202, 203) signal [1]: 1.11
